Series [1] deals with T1, human Amyloid beta 1-42 peptide (Homo sapiens, UniProt P05067).
T1 construct: biotinylated human Amyloid beta 1-42 peptide (rpeptide, USA; cat: A1117); purchased rPeptide, USA A1117; host or cells: synthetic peptide
The series is described as follows: Surface Plasmon Resonance binding kinetics of IgGs (BIAcore T-100). The following applies: IgG1-TM captured on protein G; 1:1 Langmuir fit. Here is the method: Surface Plasmon Resonance was used to analyse the binding kinetics of the affinity-optimized IgGs (section 1.8) and their germlined counterparts (section 1.9). Briefly, the BIAcore T-100 (GE Healthcare, UK) biosensor instrument was used to assess the kinetic parameters of the interaction between each test IgG and synthetically-produced human Amyloid beta 1-42 peptide. These experiments were performed essentially as described by Karsson et al. (Karlsson et al., 1991).
The affinity of binding between each test IgG and human Amyloid beta 1-42 was estimated using assays in which each antibody was non-covalently captured by a protein G surface that was itself amine linked to a proprietary CM5 chip. The chip surface was regenerated between cycles by paired 40 second injections of 10 mM Glycine pH 2.0 to remove ligand and bound antibody. The test antibody was then reapplied for each peptide injection.
A series of dilutions of synthetic human Amyloid beta 1-42 peptide (0.063-1024 nM) were sequentially passed over the antibody surface for a sufficient amount of time to observe sensorgrams that could be fitted to an appropriate binding model with confidence. […]
The validity of the data was assessed using the calculated Chi^2 value, with an acceptable value being under 2 RU^2. […]

Series [2] has as its target T2, biotinylated human Amyloid beta 1-40 (Homo sapiens, UniProt P05067).
T2 construct: biotinylated human Amyloid beta 1-40 (rPeptide, USA; cat: A1111); purchased rPeptide, USA A1111; host or cells: synthetic peptide
The series is described as follows: Surface Plasmon Resonance specificity profiling of IgGs (BIAcore2000). Type of series: binding. The following applies: peptide 64-1024 nM. As for the experimental part:
(§1) Surface Plasmon Resonance was used to verify the specificity of the affinity-optimized IgGs for the human Amyloid beta 1-42 peptide. Briefly, the BIAcore2000 (GE Healthcare, UK) biosensor instrument was used to assess the kinetic parameters of the interaction between each test IgG and a range of small peptides including synthetically-produced human Amyloid beta 1-42 and human Amyloid beta 1-40. These experiments were performed essentially as described by Karlsson et al. (Karlsson et al., 1991).
(§2) The interaction between each test IgG and each peptide was estimated using assays in which the antibody was non-covalently captured by a protein G surface that was itself amine linked to a proprietary CM5 chip. The interaction between antibody and peptide was observed using a 5 application single cycle approach. The chip surface was regenerated between cycles by paired 40 second injections of 10 mM Glycine pH 2.0 to remove ligand and bound antibody. The test antibody was then reapplied for each peptide injection cycle.
(§3) Blank reference flow-cell data were subtracted from each IgG dataset and a zero-concentration antibody-only buffer blank was double-reference subtracted from the main dataset.
In general terms: Surface plasmon resonance follows binding to a sensor surface in real time, without labels.

In series [3] the target is T3, unlabelled murine Amyloid beta 1-42 (Mus musculus, UniProt P12023).
T3 construct: unlabelled murine Amyloid beta 1-42 (rPeptide, USA; cat: A1008); purchased rPeptide, USA A1008; host or cells: synthetic peptide
The series is described as above. Type of series: binding. The following applies: peptide 64-1024 nM. As for the experimental part:
as §1, §2, §3

Series [4] has as its target T4, biotinylated human Amyloid beta 1-42 (Homo sapiens, UniProt P05067).
T4 construct: biotinylated human Amyloid beta 1-42 peptide (rpeptide, USA; cat: A1117); purchased rPeptide, USA A1117; host or cells: synthetic peptide
The series is described as above. Type of series: binding. The following applies: peptide 64-1024 nM. As for the experimental part: as §1, §2, §3

Series [5] has as its target T5, unlabelled murine Amyloid beta 1-40 (Mus musculus, UniProt P12023).
T5 construct: unlabelled murine Amyloid beta 1-40 (rPeptide, USA; cat: A1007); purchased rPeptide, USA A1007; host or cells: synthetic peptide
The series is described as above. Type of series: binding. The following applies: peptide 64-1024 nM. Here is the method:
as §1, §2, §3

The mark [6] stands for this setting: listed as Abet0380-GL (germlined) IgG1-TM.

Experimental findings from patent US20190262327A1, “COMBINATION OF A BACE INHIBITOR AND AN ANTIBODY OR ANTIGEN-BINDING FRAGMENT FOR THE TREATMENT OF A DISORDER ASSOCIATED WITH THE ACCUMULATION OF AMYLOID BETA” (ASTRAZENECA AB, priority 2016, published 2019) are described below.

T3 sequence (P12023 672-713): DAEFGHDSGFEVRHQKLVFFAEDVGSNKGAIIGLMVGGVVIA
T4 sequence (P05067 672-713): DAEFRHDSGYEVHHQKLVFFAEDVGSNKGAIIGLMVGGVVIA
T1 sequence (P05067 672-713): as above
T5 sequence (P12023 672-711): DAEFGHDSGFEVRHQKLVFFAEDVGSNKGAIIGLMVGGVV
T2 sequence (P05067 672-711): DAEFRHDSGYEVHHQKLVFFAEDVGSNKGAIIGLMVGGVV

B1: Abet0380-GL IgG1-TM: germlined Abet0380; VH SEQ ID NO: 524, VL SEQ ID NO: 533; human IgG1 triple mutant format (antibody, listed as Homo sapiens, V domains shown)
VH: EVQLLESGGGLVQPGGSLRLSCAASMGNFNYQTMWWVRQAPGKGLEWVSVIGKTNENIAYADSVKGRFTISRDNSKNTLYLQMNSLRAEDTAVYYCAREWMDHSRPYYYYGMDVWGQGTLVTVSS
VL: SYELTQPPSVSVSPGQTASITCSGHNLEDKFASWYQQKPGQSPVLVIYRDDKRPSGIPERFSASNSGHTATLTISGTQAMDEADYYCSSQDTVTRVFGGGTKLTVL
modifications: human IgG1 triple mutant constant region; /note=“Abet0380-GL”
notes: germlined Abet0380; human IgG1 triple mutant format
For the molecule B1, the “association rate constant (ka)” value in series [1] was determined as 952000 M⁻¹ s⁻¹. For the same molecule, the “dissociation rate constant (kd)” value in series [1] came to 0.000307 s⁻¹. Moreover, the “binding of biotinylated human Amyloid beta 1-40 peptide to immobilized antibody” value in series [2] is reported as “no discernable binding”; in series [2] (setting [6]) it was “no binding”. In addition, the “binding of unlabelled murine Amyloid beta 1-42 peptide to immobilized antibody” value in series [3] is given as “clear binding”; in series [3] (setting [6]), “strong binding”. In addition, the “binding of biotinylated human Amyloid beta 1-42 peptide to immobilized antibody” value in series [4] is recorded as “clear binding”; in series [4] (setting [6]), “strong binding”. Besides, the “binding of unlabelled murine Amyloid beta 1-40 peptide to immobilized antibody” value was “no discernable binding” in series [5] and “no binding” in series [5] (setting [6]).
